Results reported in paper PMC11565477 (FASEB journal : official publication of the Federation of …, 2021).
Where “and” joins values, the source holds several entries; their conditions need not be identical. Identical values can stand only once.

B1: purified NPTX1-flag-strep (pEB Multi Neo Nptx1-flag-TEV-strep-IRES-GFP, plasmid #4) (natural protein, mouse, UniProt Q62443 23-432, looked up)
chain: QDFGPTRFICTSVPVDADMCAASVAAGGAEELRSNVLQLRETVLQQKETILSQKETIRELTTKLGRCESQSTLDSGPGEARSGGGRKQPGSGKNTMGDLSRTPAAETLSQLGQTLQSLKTRLENLEQYSRLNSSSQTNSLKDLLQSKIDDLERQVLSRVNTLEEGKGGPKNDTEERAKIESALTSLHQRISELEKGQKDNRPGDKFQLTFPLRTNYMYAKVKKSLPEMYAFTVCMWLKSSAAPGVGTPFSYAVPGQANELVLIEWGNNPMEILINDKVAKLPFVINDGKWHHICVTWTTRDGVWEAYQDGTQGGNGENLAPYHPIKPQGVLVLGQEQDTLGGGFDATQAFVGELAHFNIWDRKLTPGEVYNLATCSSKALSGNVIAWAESQIEIFGGATKWTFEACRQIN
B2: purified NPTX1-flag (pEB Multi Neo Nptx1-flag-IRES-GFP, plasmid #3) (natural protein, mouse, UniProt Q62443 23-432, looked up)
chain: B1 chain
B3: purified HA-C1QL3 (pEB Multi Neo HA-C1ql3-IRES-GFP) (natural protein, mouse, UniProt Q9ESN4 21-255, looked up)
chain: HYEMLGTCRMVCDPYGGTKAPSTAATPDRGLMQSLPTFIQGPKGEAGRPGKAGPRGPPGEPGPPGPVGPPGEKGEPGRQGLPGPPGAPGLNAAGAISAATYSTVPKIAFYAGLKRQHEGYEVLKFDDVVTNLGNHYDPTTGKFTCSIPGIYFFTYHVLMRGGDGTSMWADLCKNNQVRASAIAQDADQNYDYASNSVVLHLEPGDEVYIKLDGGKAHGGNNNKYSTFSGFIIYAD

Columns and labels:
SEC = target: the molecule itself; assay: SEC
native gel or EMSA = target: the molecule itself; assay: native gel or EMSA
[1] = target: B2; assay: immunostaining of cells or tissue

| Binder | stoichiometry N (SEC) | stoichiometry N (native gel or EMSA) | binding result [1] |
| --- | --- | --- | --- |
| B1 | ~15 |  |  |
| B2 |  | 15 |  |
| B3 |  | 6 and 18 | binds |
